Results taken from US20260374873 (published 2026).

Legend:
[1] = biological target: T1, rat B7-H3 (rat, UniProt Q7TPB4); assay: BLI
T1 chain: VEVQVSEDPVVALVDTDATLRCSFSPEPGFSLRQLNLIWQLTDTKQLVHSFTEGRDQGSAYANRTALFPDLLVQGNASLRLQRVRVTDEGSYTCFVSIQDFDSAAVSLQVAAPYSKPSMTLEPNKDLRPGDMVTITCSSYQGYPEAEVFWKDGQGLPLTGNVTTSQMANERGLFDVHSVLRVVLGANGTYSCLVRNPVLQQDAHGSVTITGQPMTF

[2] = biological target: human B7-H1 (human, UniProt Q9NZQ7); assay: ELISA
[3] = biological target: T2, rat B7-H3 on CHO-S (rat, UniProt Q7TPB4); assay: FACS
T2 chain: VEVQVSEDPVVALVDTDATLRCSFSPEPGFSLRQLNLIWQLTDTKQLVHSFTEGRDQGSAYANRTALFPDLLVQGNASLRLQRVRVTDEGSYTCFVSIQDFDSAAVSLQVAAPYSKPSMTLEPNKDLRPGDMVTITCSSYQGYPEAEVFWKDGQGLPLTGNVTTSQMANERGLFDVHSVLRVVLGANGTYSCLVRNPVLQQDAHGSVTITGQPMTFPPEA

[4] = biological target: T3, human B7-1 (human, UniProt P33681); assay: ELISA
T3 chain: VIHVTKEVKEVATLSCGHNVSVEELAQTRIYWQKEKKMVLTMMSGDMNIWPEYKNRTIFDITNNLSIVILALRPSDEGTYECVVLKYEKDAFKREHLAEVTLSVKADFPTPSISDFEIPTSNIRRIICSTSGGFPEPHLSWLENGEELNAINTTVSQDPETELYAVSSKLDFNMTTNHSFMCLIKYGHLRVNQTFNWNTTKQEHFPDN

[5] = biological target: T4, human B7-2 (human, UniProt P42081); assay: ELISA
T4 chain: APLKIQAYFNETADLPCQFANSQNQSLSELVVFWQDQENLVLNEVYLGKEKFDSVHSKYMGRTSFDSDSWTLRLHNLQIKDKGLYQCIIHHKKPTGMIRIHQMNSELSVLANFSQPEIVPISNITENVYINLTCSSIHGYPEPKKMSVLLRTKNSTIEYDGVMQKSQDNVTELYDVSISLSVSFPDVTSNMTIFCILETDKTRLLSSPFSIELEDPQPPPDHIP

[6] = biological target: T5, human B7-H4 (human, UniProt Q7Z7D3); assay: ELISA
T5 chain: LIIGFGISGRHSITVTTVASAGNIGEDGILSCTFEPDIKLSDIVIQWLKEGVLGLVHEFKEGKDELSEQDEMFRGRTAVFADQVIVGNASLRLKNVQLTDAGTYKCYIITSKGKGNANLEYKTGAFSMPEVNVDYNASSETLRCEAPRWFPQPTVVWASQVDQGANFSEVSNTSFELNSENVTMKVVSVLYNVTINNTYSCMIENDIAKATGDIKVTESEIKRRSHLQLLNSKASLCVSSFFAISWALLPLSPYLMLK

[7] = biological target: T6, human B7-H2 (human, UniProt O75144); assay: ELISA
T6 chain: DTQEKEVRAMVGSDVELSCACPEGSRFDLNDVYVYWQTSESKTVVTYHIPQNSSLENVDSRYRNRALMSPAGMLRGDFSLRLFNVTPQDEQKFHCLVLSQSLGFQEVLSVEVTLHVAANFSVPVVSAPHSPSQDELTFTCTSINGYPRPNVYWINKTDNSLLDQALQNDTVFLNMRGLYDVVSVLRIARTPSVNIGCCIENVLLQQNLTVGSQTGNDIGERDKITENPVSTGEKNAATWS

Measured: binding result

Sequence of human B7-H1 (Q9NZQ7 19-238): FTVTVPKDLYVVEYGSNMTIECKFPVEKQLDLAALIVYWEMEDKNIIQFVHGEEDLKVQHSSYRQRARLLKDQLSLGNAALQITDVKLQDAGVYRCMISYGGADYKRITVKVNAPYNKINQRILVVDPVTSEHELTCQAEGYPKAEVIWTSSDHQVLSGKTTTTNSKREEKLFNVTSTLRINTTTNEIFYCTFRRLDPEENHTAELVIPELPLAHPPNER

B1: 2#8890 (antibody, V domains shown)
VH: QVQLQESGPGLVQPSGTLSLTCAVSGGSDSSTNWWTWVRQSPGQGLEWIGEISPIGFTSYSPSLRSRVTISVDKSKTQFSLKLSSVTAADTAVYYCARDRLYFAFWGQGTLVTVSS
VL: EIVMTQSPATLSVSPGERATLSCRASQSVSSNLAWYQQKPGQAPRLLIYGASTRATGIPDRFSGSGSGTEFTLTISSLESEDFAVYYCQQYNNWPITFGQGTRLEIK
no binding: all assays above
